According to paper PMC9902655:
“And” between values parts separate entries of the source, which are not always exact repeats. Identical values can stand only once.

Molecular target: human adiponectin (ADPN) from egg white of OVA ADPN knock-in chickens (human) (UniProt Q15848)
Test: non-reducing SDS-PAGE and Western blot; crude egg white of KI hens 0090 and 0141, diluted, in RIPA buffer and Laemmli sample buffer, 95°C 5 min, 10% gel, non-reducing; anti-adiponectin blot; under reducing conditions the multimer bands decreased and the monomer band increased

human adiponectin (ADPN) from egg white of OVA ADPN knock-in chickens (from UniProt Q15848 19-244) (natural protein)
stoichiometry N: 3 and 6
